# Laboratory results from patent publication US20240132603A1 (HARBOUR BIOMED US, published 2024).
# Changes are numbered by the printed parent chain. Numbers in names are those of the source.
# B1: PR004666 (antibody, human IgG1, kappa)
# heavy: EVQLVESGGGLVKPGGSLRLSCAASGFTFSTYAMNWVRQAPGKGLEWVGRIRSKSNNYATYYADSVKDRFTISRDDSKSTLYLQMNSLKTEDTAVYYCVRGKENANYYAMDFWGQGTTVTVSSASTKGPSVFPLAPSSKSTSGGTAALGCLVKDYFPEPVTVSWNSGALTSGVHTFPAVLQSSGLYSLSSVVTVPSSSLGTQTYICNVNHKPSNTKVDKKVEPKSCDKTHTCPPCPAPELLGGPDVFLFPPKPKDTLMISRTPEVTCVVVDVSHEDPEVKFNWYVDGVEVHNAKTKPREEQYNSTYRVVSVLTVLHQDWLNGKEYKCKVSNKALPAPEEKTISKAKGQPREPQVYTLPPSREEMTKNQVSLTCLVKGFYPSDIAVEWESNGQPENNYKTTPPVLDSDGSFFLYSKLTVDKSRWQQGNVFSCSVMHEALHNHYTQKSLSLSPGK
# light: DIVMTQSPLSLPVTLGQPASISCRSSKSLLHSNAKIYLYWFQQRPGQSPRLLIYRMSNLASGVPDRFSGSGSGTDFTLKISRVEAEDVGVYYCMQHLEYPLTFGQGTKLEIKRTVAAPSVFIFPPSDEQLKSGTASVVCLLNNFYPREAKVQWKVDNALQSGNSQESVTEQDSKDSTYSLSSTLTLSKADYEKHKVYACEVTHQGLSSPVTKSFNRGEC
# notes: PTM site-removed humanized variant of PR004128, IgG1 with DE mutation
# B2: PR005750 (Fab, V domains shown)
# VH: EVQLVESGGGLVKPGGSLRLSCAASGFTFSTYAMNWVRQAPGKGLEWVGRIRSKSNNYATYYADSVKDRFTISRDDSKSTLYLQMNSLKTEDTAVYYCVRGKENANYYAMDFWGQGTTVTVSS
# VL: DIVMTQSPLSLPVTLGQPASISCRSSKSLLHSNAKIYLYWFQQRPGQSPRLLIYRMSNLASGVPDRFSGSGSGTDFTLKISRVEAEDVGVYYCMQHLEYPLTFGQGTKLEIKR
# notes: Fab form of the same variable region as PR004666
# B3: PR005751 (Fab, V domains shown)
# VH: B2 VH with N104H, A105G
# VL: B2 VL
# B4: PR005752 (Fab, V domains shown)
# VH: B2 VH with N57Y, N104H, A105G
# VL: B2 VL
# B5: PR005753 (Fab, V domains shown)
# VH: B2 VH with N104I, A105G
# VL: B2 VL
# B6: PR005754 (Fab, V domains shown)
# VH: B2 VH with N57Y, N104I, A105G
# VL: B2 VL
# B7: PR004519 (antibody, human IgG1, kappa, V domains shown)
# VH: B2 VH with S30N, A105G
# VL: B2 VL with L15P, Q17E, A34G, Q42L, R44K, R50Q
# notes: humanized variant of PR004128, IgG1 with DE mutation
# B8: PR004520 (antibody, human IgG1, kappa)
# heavy: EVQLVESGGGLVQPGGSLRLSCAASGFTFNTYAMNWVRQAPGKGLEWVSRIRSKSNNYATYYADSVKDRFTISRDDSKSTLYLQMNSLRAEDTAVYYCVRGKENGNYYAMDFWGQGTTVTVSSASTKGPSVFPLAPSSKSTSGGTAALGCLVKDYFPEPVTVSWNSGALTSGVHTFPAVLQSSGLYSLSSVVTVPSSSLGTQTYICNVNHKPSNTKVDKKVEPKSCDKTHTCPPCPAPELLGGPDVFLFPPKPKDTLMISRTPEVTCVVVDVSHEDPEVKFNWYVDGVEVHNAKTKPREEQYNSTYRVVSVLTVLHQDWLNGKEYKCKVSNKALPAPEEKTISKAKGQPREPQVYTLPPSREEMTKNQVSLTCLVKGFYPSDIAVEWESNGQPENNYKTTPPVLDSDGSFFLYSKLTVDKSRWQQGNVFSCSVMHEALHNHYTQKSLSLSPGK
# light: B1 light with L15P, Q17E, A34G, Q42L, R44K, R50Q
# notes: as for B7
# B9: PR004521 (antibody, human IgG1, kappa, V domains shown)
# VH: B2 VH with K13Q, R19K, S30N, P41S, A105G
# VL: B2 VL with L15P, Q17E, A34G, Q42L, R44K, R50Q
# notes: as for B7
# B10: PR004522 (antibody, human IgG1, kappa, V domains shown)
# VH: B2 VH with S30N, A105G
# VL: B2 VL with L15P, Q17E, A34G, K35N, I36T, Q42L, R44K, R50Q
# notes: as for B7
# B11: PR004523 (antibody, human IgG1, kappa, V domains shown)
# VH: B2 VH with K13Q, S30N, G49S, K89R, T90A, A105G
# VL: B2 VL with L15P, Q17E, A34G, K35N, I36T, Q42L, R44K, R50Q
# notes: as for B7
# B12: PR004524 (antibody, human IgG1, kappa, V domains shown)
# VH: B2 VH with K13Q, R19K, S30N, P41S, A105G
# VL: B2 VL with L15P, Q17E, A34G, K35N, I36T, Q42L, R44K, R50Q
# notes: as for B7
# B13: PR004525 (antibody, human IgG1, kappa)
# heavy: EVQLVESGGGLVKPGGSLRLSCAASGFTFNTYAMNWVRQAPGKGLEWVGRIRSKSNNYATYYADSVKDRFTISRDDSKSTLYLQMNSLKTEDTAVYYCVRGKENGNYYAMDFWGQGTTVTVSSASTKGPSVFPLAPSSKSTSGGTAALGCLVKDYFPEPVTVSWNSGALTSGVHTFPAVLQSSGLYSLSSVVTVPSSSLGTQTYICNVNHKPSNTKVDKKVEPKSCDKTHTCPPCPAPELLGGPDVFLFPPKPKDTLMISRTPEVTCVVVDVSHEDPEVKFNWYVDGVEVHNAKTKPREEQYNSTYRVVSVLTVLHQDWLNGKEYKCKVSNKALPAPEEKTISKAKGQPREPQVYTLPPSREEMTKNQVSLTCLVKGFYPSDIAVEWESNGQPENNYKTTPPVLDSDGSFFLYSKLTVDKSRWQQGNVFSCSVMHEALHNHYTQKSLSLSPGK
# light: B1 light with A34G
# notes: as for B7
# B14: PR004526 (antibody, human IgG1, kappa, V domains shown)
# VH: B2 VH with K13Q, S30N, G49S, K89R, T90A, A105G
# VL: B2 VL with A34G
# notes: as for B7
# B15: PR004527 (antibody, human IgG1, kappa, V domains shown)
# VH: B2 VH with K13Q, R19K, S30N, P41S, A105G
# VL: B2 VL with A34G
# notes: as for B7
# B16: PR004249 (antibody, human IgG1, kappa)
# heavy: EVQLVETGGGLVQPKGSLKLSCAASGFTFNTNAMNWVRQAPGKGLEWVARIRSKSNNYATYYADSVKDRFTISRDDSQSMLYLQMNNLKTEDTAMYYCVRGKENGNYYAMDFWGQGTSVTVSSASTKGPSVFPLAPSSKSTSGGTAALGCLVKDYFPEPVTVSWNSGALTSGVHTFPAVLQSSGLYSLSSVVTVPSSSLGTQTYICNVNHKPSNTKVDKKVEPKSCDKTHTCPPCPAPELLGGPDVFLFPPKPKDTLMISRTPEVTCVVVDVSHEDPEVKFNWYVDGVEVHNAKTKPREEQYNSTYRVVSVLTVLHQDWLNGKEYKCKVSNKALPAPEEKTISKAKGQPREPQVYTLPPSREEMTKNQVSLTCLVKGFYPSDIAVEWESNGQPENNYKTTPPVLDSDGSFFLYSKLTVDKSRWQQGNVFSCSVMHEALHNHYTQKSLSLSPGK
# light: DIVMTQAAPSVPVTPGESVSISCRSSKSLLHSNGNTYLYWFLQRPGQSPQLLIYRMSNLASGVPDRFSGSGSGTAFTLRISRVEAEDVGVYYCMQHLEYPLTFGAGTKLELKRTVAAPSVFIFPPSDEQLKSGTASVVCLLNNFYPREAKVQWKVDNALQSGNSQESVTEQDSKDSTYSLSSTLTLSKADYEKHKVYACEVTHQGLSSPVTKSFNRGEC
# notes: PR004122 with S239D and I332E (DE) in the IgG1 constant region
# B17: PR004251 (antibody, human IgG1, kappa)
# heavy: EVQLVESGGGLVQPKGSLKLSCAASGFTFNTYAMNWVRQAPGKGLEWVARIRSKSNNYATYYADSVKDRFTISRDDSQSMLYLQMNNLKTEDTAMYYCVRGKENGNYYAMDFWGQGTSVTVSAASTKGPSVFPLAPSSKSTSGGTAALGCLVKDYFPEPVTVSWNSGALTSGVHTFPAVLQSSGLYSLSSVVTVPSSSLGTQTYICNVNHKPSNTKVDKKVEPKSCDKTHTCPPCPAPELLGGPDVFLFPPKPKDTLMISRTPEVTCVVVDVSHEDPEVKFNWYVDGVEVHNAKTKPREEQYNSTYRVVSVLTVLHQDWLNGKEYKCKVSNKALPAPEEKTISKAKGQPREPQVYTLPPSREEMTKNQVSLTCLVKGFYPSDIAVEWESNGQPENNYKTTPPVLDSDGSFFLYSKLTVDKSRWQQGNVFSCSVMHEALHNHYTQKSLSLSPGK
# light: B16 light with N35K, T36I, L111I
# notes: PR004128 with S239D and I332E (DE) in the IgG1 constant region
# B18: PR004252 (antibody, human IgG1, kappa)
# heavy: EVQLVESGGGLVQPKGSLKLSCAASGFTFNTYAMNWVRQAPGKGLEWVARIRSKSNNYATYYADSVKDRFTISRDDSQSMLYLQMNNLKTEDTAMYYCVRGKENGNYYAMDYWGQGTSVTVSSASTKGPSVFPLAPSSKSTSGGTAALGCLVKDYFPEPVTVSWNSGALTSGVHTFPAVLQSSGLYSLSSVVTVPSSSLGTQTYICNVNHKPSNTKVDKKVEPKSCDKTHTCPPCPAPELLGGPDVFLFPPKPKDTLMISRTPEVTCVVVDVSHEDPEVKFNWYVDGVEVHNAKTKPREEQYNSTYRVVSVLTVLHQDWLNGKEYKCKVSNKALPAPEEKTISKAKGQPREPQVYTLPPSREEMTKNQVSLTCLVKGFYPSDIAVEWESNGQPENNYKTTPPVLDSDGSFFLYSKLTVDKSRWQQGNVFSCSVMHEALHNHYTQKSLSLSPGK
# light: B16 light with S26N, L111I
# notes: PR004131 with S239D and I332E (DE) in the IgG1 constant region
# B19: PR004660 (antibody, human IgG1, kappa, V domains shown)
# VH: B2 VH with K13Q, G49S, K89R, T90A
# VL: B2 VL with L15P, Q17E, A34G, Q42L, R44K, R50Q
# notes: as for B1
# B20: PR004661 (antibody, human IgG1, kappa, V domains shown)
# VH: B2 VH with K13Q, G49S, K89R, T90A, N104Q, A105G
# VL: B2 VL with L15P, Q17E, A34G, Q42L, R44K, R50Q
# notes: as for B1
# B21: PR004662 (antibody, human IgG1, kappa, V domains shown)
# VH: B2 VH with K13Q, G49S, K89R, T90A
# VL: B2 VL with L15P, Q17E, Q42L, R44K, R50Q
# notes: as for B1
# B22: PR004663 (antibody, human IgG1, kappa, V domains shown)
# VH: B2 VH with K13Q, G49S, K89R, T90A, N104Q, A105G
# VL: B2 VL with L15P, Q17E, Q42L, R44K, R50Q
# notes: as for B1
# B23: PR004664 (antibody, human IgG1, kappa, V domains shown)
# VH: B2 VH
# VL: B2 VL with A34G
# notes: as for B1
# B24: PR004665 (antibody, human IgG1, kappa, V domains shown)
# VH: B2 VH with N104Q, A105G
# VL: B2 VL with A34G
# notes: as for B1
# B25: PR004667 (antibody, human IgG1, kappa, V domains shown)
# VH: B2 VH with N104Q, A105G
# VL: B2 VL
# notes: as for B1
# Target: T1, cynomolgus monkey CCR8 (cynomolgus monkey, UniProt G7NYJ2 1-355)
# T1 construct: whole, on cells; also called CynoCCR8
# Assay: FACS, CHO-K1-CynoCCR8 cells
# Procedure: (§1) Cells overexpressing cynomolgus monkey CCR8, CHO-K1-CynoCCR8, were digested with pancreatin, counted and resuspended to a cell density of 1E6 cells/mL. The cell suspension was added to a 96-well V-bottom plate at 100 μL/well and centrifuged at 300 g for 5 min, and the supernatant was discarded. The anti-CCR8 antibodies provided herein was used as a primary antibody and diluted in a 5-fold gradient with an FACS buffer (DPBS containing 2% FBS) from 200 nM. The diluted primary antibody was added at 100 μL/well to resuspend the cells, and the mixture was incubated at 4° C. for 1 h. The plate was washed twice with DPBS and centrifuged at 300×g for 5 min, and the supernatant was discarded. The secondary antibody diluted in a 1:1000 ratio with an FACS buffer was added at 100 μL/well to suspend the cells, and the mixture was incubated at 4° C. for 40 min. The plate was washed twice with DPBS and centrifuged at 300×g for 5 min, and the supernatant was discarded. DPBS was added at 200 μL/well to suspend the cells, and the mixture was loaded on an FACS machine for analysis.
# T1 sequence (G7NYJ2 entry or part of it): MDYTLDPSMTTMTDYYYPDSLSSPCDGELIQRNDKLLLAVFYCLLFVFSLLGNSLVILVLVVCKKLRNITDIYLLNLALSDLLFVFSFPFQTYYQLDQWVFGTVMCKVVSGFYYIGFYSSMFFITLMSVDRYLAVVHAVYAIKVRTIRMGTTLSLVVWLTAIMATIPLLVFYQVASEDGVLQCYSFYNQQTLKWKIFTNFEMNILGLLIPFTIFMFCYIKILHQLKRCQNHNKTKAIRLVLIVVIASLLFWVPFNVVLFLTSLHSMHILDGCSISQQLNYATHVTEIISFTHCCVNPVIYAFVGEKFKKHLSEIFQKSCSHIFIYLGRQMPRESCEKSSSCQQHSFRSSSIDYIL
row,Binder,EC50
1,B1,0.37 nM

# Target: T2, human CCR8 (human, UniProt P51685 1-355)
# T2 construct: whole, on cells; construct used for the overexpressing cell lines is not described; also called hCCR8
# Assay: FACS, CHO-K1-hCCR8 cells, Fab
# Procedure: as §1, with “human CCR8” for “cynomolgus monkey CCR8, CHO-K1-CynoCCR8,”
# T2 sequence (P51685 whole entry): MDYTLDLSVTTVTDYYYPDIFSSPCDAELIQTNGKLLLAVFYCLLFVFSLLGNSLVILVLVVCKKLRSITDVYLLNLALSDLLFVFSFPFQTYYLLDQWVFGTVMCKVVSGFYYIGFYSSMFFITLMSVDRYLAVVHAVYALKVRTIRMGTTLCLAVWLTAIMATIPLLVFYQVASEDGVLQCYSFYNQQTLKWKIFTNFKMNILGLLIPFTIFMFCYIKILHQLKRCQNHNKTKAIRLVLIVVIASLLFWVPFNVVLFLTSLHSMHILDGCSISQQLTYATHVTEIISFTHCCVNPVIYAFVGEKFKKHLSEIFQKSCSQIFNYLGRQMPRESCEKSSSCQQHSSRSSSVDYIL
row,Binder,EC50
1,B2,1.56 nM
2,B3,1.1 nM
3,B4,0.69 nM
4,B5,1.19 nM
5,B6,0.84 nM

# Target: T1, cynomolgus monkey CCR8
# Assay: FACS, CHO-K1-CynoCCR8 cells
# Remark: another data set of the same source
# Procedure: as §1
row,Binder,EC50
1,B7,4.17 nM
2,B8,4.6 nM
3,B9,6.22 nM
4,B10,5.87 nM
5,B11,4.42 nM
6,B12,4.79 nM
7,B13,6.21 nM
8,B14,4.01 nM
9,B15,7.33 nM

# Target: T1, cynomolgus monkey CCR8
# Assay: FACS, CHO-K1-CynoCCR8 cells
# Remark: another data set of the same source
# Procedure: as §1
row,Binder,EC50
1,B16,3.42 nM
2,B17,8.26 nM
3,B18,3.32 nM

# Target: T2, human CCR8
# Assay: FACS, HEK293-hCCR8 cells
# Procedure: as §1, with “human CCR8” for “cynomolgus monkey CCR8, CHO-K1-CynoCCR8,”
row,Binder,EC50
1,B16,1.22 nM
2,B17,3.69 nM
3,B18,0.98 nM

# Target: T2, human CCR8
# Assay: FACS, CHO-K1-hCCR8 cells
# Procedure: as §1, with “human CCR8” for “cynomolgus monkey CCR8, CHO-K1-CynoCCR8,”
row,Binder,EC50
1,B1,0.44 nM

# Target: T2, human CCR8
# Assay: FACS, CHO-K1-hCCR8 cells
# Remark: another data set of the same source
# Procedure: as §1, with “human CCR8” for “cynomolgus monkey CCR8, CHO-K1-CynoCCR8,”
row,Binder,EC50
1,B7,0.67 nM
2,B8,1.31 nM
3,B9,0.37 nM
4,B10,1.08 nM
5,B11,1 nM
6,B12,0.17 nM
7,B13,0.85 nM
8,B14,1.03 nM
9,B15,0.73 nM

# Target: T2, human CCR8
# Assay: FACS, CHO-K1-hCCR8 cells
# Remark: another data set of the same source
# Procedure: as §1, with “human CCR8” for “cynomolgus monkey CCR8, CHO-K1-CynoCCR8,”
row,Binder,EC50
1,B19,0.49 nM
2,B20,0.456 nM
3,B21,0.681 nM
4,B22,0.286 nM
5,B23,0.365 nM
6,B24,0.341 nM
7,B1,0.466 nM
8,B25,0.279 nM
